Source: the supplement of paper PMC9170038

System: MS2 coat protein
Assay: apparent KD of MS2 coat protein; higher = weaker reporter binding
Conditions: Eterna round: R107
Description: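 RNA-MaP round R107: designed RNA switches with theophylline, tryptophan, arginine or FMN aptamers are transcribed on-chip within common flanks. They are titrated with SNAP-549-labelled MS2 coat protein in RNA-MaP buffer (100 mM Tris pH 7.5, 80 mM KCl, 4 mM MgCl2), without ligand or with the indicated ligand. Median apparent KD per design.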

[1] = input ligand: theophylline 20 uM
[2] = input ligand: tryptophan 2.4 mM
[3] = input ligand: theophylline 2 mM

Sequence	apparent KD of MS2 coat protein (input ligand: arginine 13.2 mM) [nM]	apparent KD of MS2 coat protein [1] [nM]	apparent KD of MS2 coat protein [2] [nM]	apparent KD of MS2 coat protein (input ligand: none) [nM]	apparent KD of MS2 coat protein [3] [nM]
GACAUGAGGAUAGAUACCAGCGACAUGAGGAUCACAUGAGGAUCACCCAUGUGUAGUAUACGCCCUUGGCAGCUAACAUGAGGAU [Same State Theophylline B 3]	59.5	129	68.1		
GUAGCGACGACGGCCGCCACUCACAGGUGAGGGUAGACCAACCUUCACAUGAGGAUCACCCAUGUGAGGACCGGGUUGUCGCUAC [#12 Exclusion Tryptophan B]	57.5	109	168	79	81.4
GGGUCGGGCGCGGCCGCCACUGCGGUGAUGUGACAUGAGGAUCACCCAUGUUGUCAUGUGGCACAUAGGACCGGGCGCCCGGCCC [#1 Exclusion - Tryptophan B Attempt #8 (HarryS)]	34.7	46.8	29.1	29.1	34.7
AUCGUACCUAGUGAUACCAGCAAGUGAUCAUAACAUGAGGAUCACCCAUGUAAUCAGUGAUGCCCUUGGCAGCAUAAUCGUUACA [Same State - Theophylline B (Freestyle 1)]	118	228	173		
GUAGGUCACCUCAUGAGACCUACCCUGGAAGGAGCGAGCGAAAGCUCAGGUAGGUCGCCAGAAACAUGAGGAUCACCCAUGUAAU [(A)''-(M)'-(A)'-(Arg1)-(Arg2)-(M1)-(M2)_Design3]	29.4	150	44.6	51.1	190
AUCCACAGCCGAAGGAGCGCAGUAGGAUGACAUGAGGAUCACCCAUGUGUGUGAUGUGGAUUGCAGGUAGGUCGCGGAGUGGGUU [Exclusion - Arginine B (Freestyle 8)]	43.9	72.5	72.6	71.7	73.6
UCUAGUGCGGGAAGGAGCGCCAUACAUGAGGAUCACCCAUGUUGAGCAUGCUCGUGUACUAGGCAGGUAGGUCGCCCGCUCUACG [Radionle]	28.8	30.9	23.3	27.2	23.5
AUUAAUUGUCGUGAUACCAGACAUACAUGAGGAUCACCCAUGUUAAGUAACAUUUUUUAUGUCCCUUGGCAGCACUUUUUAAUUA [JR_Nu_SSTheophyB_Sub017]	22	24.8	19.7		
GUAUAUAUGCGAAGGAGCGGGAAAUAUAUAUAUAUAAUCCUAACAUGAGGAUCACCCAUGUCCCAGGUAGGUCGCGCAUAUAUAU [12.B]	68.7	86.9	76.1	69.6	83.6
AAAUAAAUACAUGAGGAUCACCCAUGUGAAGGAGCGGCCGUUAGGCCAGGUAGGUCGCGCAUGAAUAACUCCGUGCAUAAGCACA [MAT - Exclusion Arginine A - Mod of Eli - D18]	10.6	16.6	12.3	11.1	12.2
GGCGCGAGCCAACAUGAGGAUCACCCAUGUCGAGGACCGGUACGGCCGCCACUCGAACGAGUGGCGCGCGCGCGCGCGCGCGCGC [Vaa]	12.2	17.9	28.6	15.9	19
AAUUCCUAACAUGAGGAUCACCCAUGUGAAGGAGCGCCGAAUAAGGCAGGUAGGUCGCACAUGGAACUGCUACGAAAGUAGAAAA [XArg-A 4 V2mod]	19.2	23.3	18.8	16.2	35.1
GUGGAGACAUGAGAUACCAGUCUCUUUAACAUGAGGAUCACCCAUGUAAUGCUCCUCGGAGACCCUUGGCAGCUCAGUAUGAUGA [#09 Exclusion-TheophyllineB]	32.2	71.7	34.4		
GCGCGGCGAGUGCGGCGUGUUCCGCUCCGUCGAGGACCGGUACGGCCGCCACUCGACAUGAGGAUCACCCAUGUCGCCGCGCGCG [Exclusion - Tryptophan A Attempt #3]	13.9	22.9	13.5	13.3	48.3
AUGACUCACAAAGAAGAUAAAAUGGGUGAACGAGGACCGGUACGGCCGCCACUCGGACAUGAGGAUCACCCAUGUCCAUGUGCAA [#24 Exclusion Tryptophan A]	16	24.3			21
GUAUAAAGAAAACUUUAUACAGUGGGUGAACGAGGACCGGUACGGCCGCCACUCGGACAUGAGGAUCACCCAUGUCCAUGUGAAA [AstrosExyTryA#9]	14.4	13.9	37.2	14.3	17
